According to US20200011878A1 (published 2020):

B1: 1A03 anti-NRP1 IgG antibody (antibody, V domains shown)
VH: EVQLLESGGGLVQFGGSLRLSQAASGFTFSSYYMSWVRQAFGKGLEWVSAISFGSSNKYYADSVQGRFTISRDNSKNTLYLQMNELRAEDTAVYYCARRKKSFDYWGQGTLVTVSS
VL: QSVLTQFFSASGTPGQRVTISCSGFSSNIGNNDVSWYQQLFGTAPKLLIYSCNNRPSGVPDRFSGSKSGTSASLAISGLRSSDEADYYCGAWVASLSAYVFGGGTKLTVTL
B2: IRCR-101 (3H10 converted into IgG format) (antibody, V domains shown)
VH: EVQLLESGGGLVQFQQSLRLSQAASQFTFSSYYMSWVRQAFGKGLEWVSAISPGSSNKYYADSVKGRFTISRDNSKNTLYLQMNELRAEDTAVYYCARRKYMFDYWGQGTLVTVSS
VL: GSVLTQPPSASGTPGQRVTISCTGESSNIGNNDVYWYQQLPGTAFKLLIYSQSNRPSGMPDRFSGSKSGTSASLAISGLRSEDEADYYCASWDSSLSGYVFGGGTKLTVTL

Target: human NRP1 protein (human, UniProt O14786 22-856)
Assay: ELISA

| Binder | Kd [nM] |
| --- | --- |
| B1 | 1110 |
| B2 | 426 |
